Reference: patent US20150174221A1

What was measured:
[1] = target: ADAMTS-4 (human) (UniProt O75173); experiment: cell-based or functional assay
[2] = target: ADAMTS-5 (human) (UniProt Q9UNA0); experiment: cell-based or functional assay
Sequence of UniProt Q9UNA0 (Q9UNA0 262-622 limits assumed): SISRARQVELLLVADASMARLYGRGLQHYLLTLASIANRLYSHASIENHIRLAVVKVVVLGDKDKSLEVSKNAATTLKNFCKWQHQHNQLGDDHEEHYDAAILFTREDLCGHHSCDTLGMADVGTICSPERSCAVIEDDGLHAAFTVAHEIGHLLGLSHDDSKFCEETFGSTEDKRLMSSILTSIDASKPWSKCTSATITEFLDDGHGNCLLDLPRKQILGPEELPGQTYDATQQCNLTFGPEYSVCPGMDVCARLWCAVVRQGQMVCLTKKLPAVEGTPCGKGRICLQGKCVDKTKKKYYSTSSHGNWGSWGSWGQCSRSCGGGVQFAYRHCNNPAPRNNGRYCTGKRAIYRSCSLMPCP

Sequence of UniProt O75173 (O75173 213-685 limits assumed): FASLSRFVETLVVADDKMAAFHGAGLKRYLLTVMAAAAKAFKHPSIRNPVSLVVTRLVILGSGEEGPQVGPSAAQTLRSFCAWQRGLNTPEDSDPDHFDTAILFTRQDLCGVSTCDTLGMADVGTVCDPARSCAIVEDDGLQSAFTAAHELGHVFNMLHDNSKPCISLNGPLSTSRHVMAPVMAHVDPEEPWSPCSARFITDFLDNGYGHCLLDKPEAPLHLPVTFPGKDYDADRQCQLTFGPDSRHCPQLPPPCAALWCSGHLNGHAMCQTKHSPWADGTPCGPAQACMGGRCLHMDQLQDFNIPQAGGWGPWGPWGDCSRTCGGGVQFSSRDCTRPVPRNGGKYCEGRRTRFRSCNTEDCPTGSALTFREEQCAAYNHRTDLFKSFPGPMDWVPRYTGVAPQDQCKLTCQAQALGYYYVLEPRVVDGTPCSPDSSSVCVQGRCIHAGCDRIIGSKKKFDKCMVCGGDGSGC

With “purified human A2M (alpha-2-macroglobulin) (from UniProt P01023 24-1474)” the IC50 needed to inhibit cartilage catabolism by the protease [1] was 3 µg/mL, the IC50 for inhibiting cartilage catabolism of bovine cartilage explants by 500 ng/ml ADAMTS-5 [2] was 7 µg/mL and the IC50 needed to inhibit cartilage catabolism by the protease [2] was 7 µg/mL. The Maximum inhibition of ADAMTS-5-induced cartilage catabolism [2] was 90%.
